Here are results for two molecules from article PMC6154639 (Molecules : A Journal of Synthetic Chemistry and Natural …, 2017).

The target of one series is T1, PaF4′OMT (Plagiochasma appendiculatum, UniProt A0A1X9Y2Y6).
T1 construct: pET32a fusion with N-terminal His6 tag kept (about 60 kDa on SDS-PAGE); E. coli BL21(DE3)
The series is described as follows: HPLC product quantification, Michaelis-Menten fit. Format: biochemical. To be noted: substrate inhibition by luteolin; SAM as methyl donor; pH 7.5, 37 °C. The text has this: HPLC product quantification, Michaelis-Menten fit on PaF4′OMT

Substrate in series [1]: O=c1cc(-c2ccc(O)c(O)c2)oc2cc(O)cc(O)c12
The series is described as follows: HPLC product quantification, Michaelis-Menten fit. Format: biochemical, Plagiochasma appendiculatum. Particulars: SAM as methyl donor, no Mg2+ needed, pH 7.5, 37 °C.

Substrate in the series “purified protein”: O=c1cc(-c2ccc(O)cc2)oc2cc(O)cc(O)c12
The series is described as follows: purified protein. Particulars: SAM as methyl donor, no Mg2+ needed, pH 7.5, 37 °C.

As to `O=c1cc(-c2ccc(O)c(O)c2)oc2cc(O)cc(O)c12` [luteolin], at PaF4′OMT, the “Ki” value was 292.8 ± 69.03 µM.

B1: PaF4′OMT (Plagiochasma appendiculatum) (protein)
chain: MAVSTNGKTSEGVSDVSRTKNITNGNGMDMSVSANVASIGSVSATPLSPEDKRDHVVAINFLLGWVQTWALKAVVTMRIPDIISKAPMDALTAREIISQIQCKNPSNAVPLLERLMRFMVCKGFFSESVNGENEIAYELNGVSKMYVTDHEMSVVEWVNVAFHRSGIPALTRMHEAITEDVCPWDQAHGMPIYAHNPKFPELGDFFHKAMIVHSNFLTKILAEEYEGFKDFKVLVDVGGSLGNNLALILRFHPHLRGINFDMPSVIAGAPSFPGVEHVGGNFYESVPSGDAIMLMAILHNNSDENCVKILRSVHAALPEDGKLIVAEYIMTNEADHNGERIRLLDMLMLVQFRGGEERTFEHHKTLYEAAGFRHYKLIKTSGPMDIIEVRK
notes: pET32a fusion with N-terminal His6 tag kept (about 60 kDa on SDS-PAGE); E. coli BL21(DE3)
As for B1, in series [1], the Km (as a rule, the concentration of substrate that gives half-maximal velocity) was 52.1 ± 10.54 µM; the Vmax (as a rule, the top rate of the reaction or transport when substrate is in excess) worked out at 0.111 µmol/min/mg; the kcat (in general, the maximal rate divided by the concentration of active sites) came to 0.08 ± 0.009 s⁻¹. Besides, in “purified protein”, the Km was found to be 31.0 ± 5.90 µM, the Vmax was 0.163 µmol/min/mg and the kcat came out at 0.117 s⁻¹.
